From patent US20260015399A1 (Boehringer Ingelheim, published 2026)
*1 amine or outer side, *2 acyl side, *3 side chain or, on linkers, in order; H or OH if unused. Side-chain parts run from the residue outwards. The star is where a group is joined. C18 diacid = O=C(O)CCCCCCCCCCCCCCCCC(=O)*; γGlu = O=C(O)[C@H](CCC(=O)[*:2])N[*:1]; Isovaleryl = CC(C)CC(=O)*; Ahx = NCCCCCC(=O)O

Target: T1, human NPY2 receptor (human, UniProt P49146 1-381)
T1 construct: whole, on cells; also called hNPY2-R; hNPY2R
T1 sequence (looked up): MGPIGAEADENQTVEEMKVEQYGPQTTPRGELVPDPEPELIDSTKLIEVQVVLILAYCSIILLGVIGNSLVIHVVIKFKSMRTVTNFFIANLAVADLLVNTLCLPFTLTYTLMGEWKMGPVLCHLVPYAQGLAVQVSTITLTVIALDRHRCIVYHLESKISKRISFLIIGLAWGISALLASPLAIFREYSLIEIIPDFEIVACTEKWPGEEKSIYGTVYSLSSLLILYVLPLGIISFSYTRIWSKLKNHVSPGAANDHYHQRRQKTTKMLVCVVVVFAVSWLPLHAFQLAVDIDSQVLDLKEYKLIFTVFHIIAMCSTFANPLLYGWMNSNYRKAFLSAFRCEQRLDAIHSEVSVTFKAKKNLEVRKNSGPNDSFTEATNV
Test: RLB: displacement of 125I-PYY(1-36) from hNPY2R membranes

B1: Compound 38 (peptide)
peptide: Isovaleryl-APEK([Ahx-γGlu-C18 diacid])PEEDATPEELQEYYVSLRHYYNWLTRQRY-NH2
SMILES: CC(C)CC(=O)N[C@@H](C)C(=O)N1CCC[C@H]1C(=O)N[C@@H](CCC(=O)O)C(=O)N[C@@H](CCCCNC(=O)CCCCCNC(=O)CC[C@H](NC(=O)CCCCCCCCCCCCCCCCC(=O)O)C(=O)O)C(=O)N1CCC[C@H]1C(=O)N[C@@H](CCC(=O)O)C(=O)N[C@@H](CCC(=O)O)C(=O)N[C@@H](CC(=O)O)C(=O)N[C@@H](C)C(=O)N[C@H](C(=O)N1CCC[C@H]1C(=O)N[C@@H](CCC(=O)O)C(=O)N[C@@H](CCC(=O)O)C(=O)N[C@@H](CC(C)C)C(=O)N[C@@H](CCC(N)=O)C(=O)N[C@@H](CCC(=O)O)C(=O)N[C@@H](Cc1ccc(O)cc1)C(=O)N[C@@H](Cc1ccc(O)cc1)C(=O)N[C@H](C(=O)N[C@@H](CO)C(=O)N[C@@H](CC(C)C)C(=O)N[C@@H](CCCNC(=N)N)C(=O)N[C@@H](Cc1c[nH]cn1)C(=O)N[C@@H](Cc1ccc(O)cc1)C(=O)N[C@@H](Cc1ccc(O)cc1)C(=O)N[C@@H](CC(N)=O)C(=O)N[C@@H](Cc1c[nH]c2ccccc12)C(=O)N[C@@H](CC(C)C)C(=O)N[C@H](C(=O)N[C@@H](CCCNC(=N)N)C(=O)N[C@@H](CCC(N)=O)C(=O)N[C@@H](CCCNC(=N)N)C(=O)N[C@@H](Cc1ccc(O)cc1)C(N)=O)[C@@H](C)O)C(C)C)[C@@H](C)O
For B1, the Ki was 12.4 nM.

B2: Compound 41 (peptide)
peptide: Isovaleryl-APEK([Ahx-γGlu-C18 diacid])PEEDAEPEELQRYYTSLRHYYQWLTRQRY-NH2
SMILES: CC(C)CC(=O)N[C@@H](C)C(=O)N1CCC[C@H]1C(=O)N[C@@H](CCC(=O)O)C(=O)N[C@@H](CCCCNC(=O)CCCCCNC(=O)CC[C@H](NC(=O)CCCCCCCCCCCCCCCCC(=O)O)C(=O)O)C(=O)N1CCC[C@H]1C(=O)N[C@@H](CCC(=O)O)C(=O)N[C@@H](CCC(=O)O)C(=O)N[C@@H](CC(=O)O)C(=O)N[C@@H](C)C(=O)N[C@@H](CCC(=O)O)C(=O)N1CCC[C@H]1C(=O)N[C@@H](CCC(=O)O)C(=O)N[C@@H](CCC(=O)O)C(=O)N[C@@H](CC(C)C)C(=O)N[C@@H](CCC(N)=O)C(=O)N[C@@H](CCCNC(=N)N)C(=O)N[C@@H](Cc1ccc(O)cc1)C(=O)N[C@@H](Cc1ccc(O)cc1)C(=O)N[C@H](C(=O)N[C@@H](CO)C(=O)N[C@@H](CC(C)C)C(=O)N[C@@H](CCCNC(=N)N)C(=O)N[C@@H](Cc1c[nH]cn1)C(=O)N[C@@H](Cc1ccc(O)cc1)C(=O)N[C@@H](Cc1ccc(O)cc1)C(=O)N[C@@H](CCC(N)=O)C(=O)N[C@@H](Cc1c[nH]c2ccccc12)C(=O)N[C@@H](CC(C)C)C(=O)N[C@H](C(=O)N[C@@H](CCCNC(=N)N)C(=O)N[C@@H](CCC(N)=O)C(=O)N[C@@H](CCCNC(=N)N)C(=O)N[C@@H](Cc1ccc(O)cc1)C(N)=O)[C@@H](C)O)[C@@H](C)O
B2 was tested, and the Ki was 19.8 nM.

B3: Compound 43 (peptide)
peptide: Isovaleryl-APAK([Ahx-γGlu-C18 diacid])PEAAAEPEELQRYYVSLRHYYNWLTRQRY-NH2
SMILES: CC(C)CC(=O)N[C@@H](C)C(=O)N1CCC[C@H]1C(=O)N[C@@H](C)C(=O)N[C@@H](CCCCNC(=O)CCCCCNC(=O)CC[C@H](NC(=O)CCCCCCCCCCCCCCCCC(=O)O)C(=O)O)C(=O)N1CCC[C@H]1C(=O)N[C@@H](CCC(=O)O)C(=O)N[C@@H](C)C(=O)N[C@@H](C)C(=O)N[C@@H](C)C(=O)N[C@@H](CCC(=O)O)C(=O)N1CCC[C@H]1C(=O)N[C@@H](CCC(=O)O)C(=O)N[C@@H](CCC(=O)O)C(=O)N[C@@H](CC(C)C)C(=O)N[C@@H](CCC(N)=O)C(=O)N[C@@H](CCCNC(=N)N)C(=O)N[C@@H](Cc1ccc(O)cc1)C(=O)N[C@@H](Cc1ccc(O)cc1)C(=O)N[C@H](C(=O)N[C@@H](CO)C(=O)N[C@@H](CC(C)C)C(=O)N[C@@H](CCCNC(=N)N)C(=O)N[C@@H](Cc1c[nH]cn1)C(=O)N[C@@H](Cc1ccc(O)cc1)C(=O)N[C@@H](Cc1ccc(O)cc1)C(=O)N[C@@H](CC(N)=O)C(=O)N[C@@H](Cc1c[nH]c2ccccc12)C(=O)N[C@@H](CC(C)C)C(=O)N[C@H](C(=O)N[C@@H](CCCNC(=N)N)C(=O)N[C@@H](CCC(N)=O)C(=O)N[C@@H](CCCNC(=N)N)C(=O)N[C@@H](Cc1ccc(O)cc1)C(N)=O)[C@@H](C)O)C(C)C
B3 showed a Ki of 2.49 nM.

B4: Compound 39 (peptide)
peptide: Isovaleryl-APEK([Ahx-γGlu-C18 diacid])PEEDASPEALQEYYVSLRHYYNWLTRQRY-NH2
SMILES: CC(C)CC(=O)N[C@@H](C)C(=O)N1CCC[C@H]1C(=O)N[C@@H](CCC(=O)O)C(=O)N[C@@H](CCCCNC(=O)CCCCCNC(=O)CC[C@H](NC(=O)CCCCCCCCCCCCCCCCC(=O)O)C(=O)O)C(=O)N1CCC[C@H]1C(=O)N[C@@H](CCC(=O)O)C(=O)N[C@@H](CCC(=O)O)C(=O)N[C@@H](CC(=O)O)C(=O)N[C@@H](C)C(=O)N[C@@H](CO)C(=O)N1CCC[C@H]1C(=O)N[C@@H](CCC(=O)O)C(=O)N[C@@H](C)C(=O)N[C@@H](CC(C)C)C(=O)N[C@@H](CCC(N)=O)C(=O)N[C@@H](CCC(=O)O)C(=O)N[C@@H](Cc1ccc(O)cc1)C(=O)N[C@@H](Cc1ccc(O)cc1)C(=O)N[C@H](C(=O)N[C@@H](CO)C(=O)N[C@@H](CC(C)C)C(=O)N[C@@H](CCCNC(=N)N)C(=O)N[C@@H](Cc1c[nH]cn1)C(=O)N[C@@H](Cc1ccc(O)cc1)C(=O)N[C@@H](Cc1ccc(O)cc1)C(=O)N[C@@H](CC(N)=O)C(=O)N[C@@H](Cc1c[nH]c2ccccc12)C(=O)N[C@@H](CC(C)C)C(=O)N[C@H](C(=O)N[C@@H](CCCNC(=N)N)C(=O)N[C@@H](CCC(N)=O)C(=O)N[C@@H](CCCNC(=N)N)C(=O)N[C@@H](Cc1ccc(O)cc1)C(N)=O)[C@@H](C)O)C(C)C
With B4 the Ki was 2.73 nM.

B5: Compound 42 (peptide)
peptide: Isovaleryl-APEK([Ahx-γGlu-C18 diacid])PEEPATPEELQRYYVSLRHYYNWLTRQRY-NH2
SMILES: CC(C)CC(=O)N[C@@H](C)C(=O)N1CCC[C@H]1C(=O)N[C@@H](CCC(=O)O)C(=O)N[C@@H](CCCCNC(=O)CCCCCNC(=O)CC[C@H](NC(=O)CCCCCCCCCCCCCCCCC(=O)O)C(=O)O)C(=O)N1CCC[C@H]1C(=O)N[C@@H](CCC(=O)O)C(=O)N[C@@H](CCC(=O)O)C(=O)N1CCC[C@H]1C(=O)N[C@@H](C)C(=O)N[C@H](C(=O)N1CCC[C@H]1C(=O)N[C@@H](CCC(=O)O)C(=O)N[C@@H](CCC(=O)O)C(=O)N[C@@H](CC(C)C)C(=O)N[C@@H](CCC(N)=O)C(=O)N[C@@H](CCCNC(=N)N)C(=O)N[C@@H](Cc1ccc(O)cc1)C(=O)N[C@@H](Cc1ccc(O)cc1)C(=O)N[C@H](C(=O)N[C@@H](CO)C(=O)N[C@@H](CC(C)C)C(=O)N[C@@H](CCCNC(=N)N)C(=O)N[C@@H](Cc1c[nH]cn1)C(=O)N[C@@H](Cc1ccc(O)cc1)C(=O)N[C@@H](Cc1ccc(O)cc1)C(=O)N[C@@H](CC(N)=O)C(=O)N[C@@H](Cc1c[nH]c2ccccc12)C(=O)N[C@@H](CC(C)C)C(=O)N[C@H](C(=O)N[C@@H](CCCNC(=N)N)C(=O)N[C@@H](CCC(N)=O)C(=O)N[C@@H](CCCNC(=N)N)C(=O)N[C@@H](Cc1ccc(O)cc1)C(N)=O)[C@@H](C)O)C(C)C)[C@@H](C)O
B5 gave a Ki of 1.98 nM.
